The values that follow come from paper PMC4212957, “The serodominant secreted effector protein of Salmonella, SseB, is a strong CD4 antigen containing an immunodominant epitope presented by diverse HLA class II alleles” (Immunology, 2014).

One test concerns the target HLA-DRB1*07:01 (Homo sapiens, UniProt P01903+P01911, A100R/A102G/A103Q/D57E/D86V/E43K/F76Y/K127E/L162R/M171V/P40G/Q125H/Q99D/R33Q/R42Y/R54Q/S133A/S66F/T210M/V115G/Y107V/Y59L/Y89S). The settings on record: competitive ELISA; ratio IC50 of peptide / IC50 of reference peptide HA 306–318; lower = higher affinity; ratio 20 or less high, 20–100 moderate; three independent experiments. For orientation: In an ELISA, binding on a coated surface is turned into a signal by an enzyme label.

The target in another test is HLA-DRB1*01:01 (Homo sapiens, UniProt P01903+P01911, A100R/D57E/F55L/F60I/F76Y/I96L/L162R/M171V/P40L/Q125E/R42F/V115G/Y59C). As to conditions: competitive ELISA; ratio IC50 of peptide / IC50 of reference peptide HA 306–318; lower = higher affinity; ratio 20 or less high, 20–100 moderate; three independent experiments.
In a further test the target is HLA-DRB1*04:01 (Homo sapiens, UniProt P01903+P01911, A100K/A169T/F76Y/I96L/K127E/L162R/M171V/N62H/P40V/Q125Y/R42H/S133A/S149N/S66Y/V115G/V209L/W38E). The settings on record: competitive ELISA; ratio IC50 of peptide / IC50 of reference peptide HA 306–318; lower = higher affinity; ratio 20 or less high, 20–100 moderate; three independent experiments.
The target in another test is T1, HLA-DRB1*15:02 (Homo sapiens, UniProt P01903+P01911, V115G).
T1 construct: HLA-DR heterodimers were purified from homozygous Epstein–Barr virus B-lymphoblastoid cell lines; host or cells: homozygous EBV B-lymphoblastoid cell line
As to the kind of experiment: Peptide/HLA-DR binding, competitive ELISA. As to conditions: ratio IC50 of peptide / IC50 of reference peptide TFR 607–620, lower = higher affinity, ratio 20 or less high, 20–100 moderate, three independent experiments. The method, then: (§1) HLA-DR heterodimers were purified from homozygous Epstein–Barr virus B-lymphoblastoid cell lines (HPA Culture Collections, Salisbury, UK) by affinity chromatography with the monomorphic HLA-DRα monoclonal antibody, L243.[29],[30] Binding of the SseB peptide panel to the HLA-DR molecules HLA-DRB1*01:01, 03:01, 04:01, 07:01, 09:01, 11:01, 12:02, 15:01, 15:02 was assessed by competitive ELISA, as previously described, using an automated workstation.[29],[30] We evaluated the peptide concentration able to prevent binding of 50% of the labelled peptide (IC50). Data were expressed as relative affinity: ratio of the IC50 of the peptide to the IC50 of the reference peptide, which is a high binder to the HLA class II molecule. Unlabelled forms of the biotinylated peptides were used as reference peptides.

Another test addresses HLA-DRB1*12:02 (Homo sapiens, UniProt P01903+P01911, A100R/A169T/D57E/D86V/F55L/H45Y/I96F/K41T/L162R/M171V/P40S/Q125H/Q178H/Q39Y/Q99D/R42G/S66L/T262R/V114A/V67L/W38E/Y59H/Y61H/Y89S). As to the kind of experiment: Peptide/HLA-DR binding, competitive ELISA. As to conditions: ratio IC50 of peptide / IC50 of reference peptide TFR 141–155, lower = higher affinity, ratio 20 or less high, 20–100 moderate, three independent experiments. The method, then: as §1

A further test deals with T2, HLA-DRB1*15:01 (Homo sapiens, UniProt P01903+P01911).
T2 construct: HLA-DR heterodimers were purified from homozygous Epstein–Barr virus B-lymphoblastoid cell lines; host or cells: homozygous EBV B-lymphoblastoid cell line
The test is described as follows: Peptide/HLA-DR binding, competitive ELISA. As to conditions: ratio IC50 of peptide / IC50 of reference peptide A3 152–166, lower = higher affinity, ratio 20 or less high, 20–100 moderate, three independent experiments. The method, then:
as §1

Another test addresses T3, HLA-DRB1*03:01 (Homo sapiens, UniProt P01903+P01911, A100K/A102G/A103R/A169T/F55Y/I96L/K41T/L162R/M171V/P40S/Q125H/Q178H/Q39Y/R42S/S66N/T106N/T262R/W38E/Y61H).
T3 construct: HLA-DR heterodimers were purified from homozygous Epstein–Barr virus B-lymphoblastoid cell lines; host or cells: homozygous EBV B-lymphoblastoid cell line
The test is described as follows: Peptide/HLA-DR binding, competitive ELISA. As to conditions: ratio IC50 of peptide / IC50 of reference peptide MT2-16, lower = higher affinity, ratio 20 or less high, 20–100 moderate, three independent experiments. As for the experimental part:
as §1

In the next test the target is T4, HLA-DRB1*09:01 (Homo sapiens, UniProt P01903+P01911, A100R/A103E/D57H/D86V/F55Y/F60I/F76Y/I96F/K127E/L162R/M171V/P40D/Q125H/Q99R/R33Q/R42F/S133A/S66N/T210M/V115G/W38K/Y107V/Y59G/Y89S).
T4 construct: HLA-DR heterodimers were purified from homozygous Epstein–Barr virus B-lymphoblastoid cell lines; host or cells: homozygous EBV B-lymphoblastoid cell line
The test is described as follows: Peptide/HLA-DR binding, competitive ELISA. As to conditions: ratio IC50 of peptide / IC50 of reference peptide CTP 427–441, lower = higher affinity, ratio 20 or less high, 20–100 moderate, three independent experiments. As for the experimental part:
as §1

Test [1] relates to draining lymph node cells of HLA-DR4 transgenic mice. As to the kind of experiment: Murine IFN-γ ELISpot, HLA-DR4 transgenic mice primed with SseB. As to conditions: mouse, in vivo. From the text: (§2) Mice transgenic for HLA-DR1 (that is, HLA-DRA1*0101/HLA-DRB1*0101) and HLA-DR4 (that is, HLA-DRA1*0101/HLA-DRB1*0401)[24]–[26] were bred and housed in the Centre for Biological Services at the Hammersmith campus, Imperial College London, UK, in accordance with Home Office regulations and College ethics review. Both transgenic lines are maintained on a C57BL/6 background as homozygotes for knockout of murine MHC Class II H2-Aβ.[27]
(§3) HLA-DR1 or HLA-DR4 transgenic mice were primed, by subcutaneous injection into the footpad, with 25 μg of recombinant SseB protein administered as a 1 : 1 emulsion with TiterMax® Gold (CytRx Corporation, Los Angeles, CA). Ten days after priming, popliteal draining lymph nodes were harvested and stimulated, in triplicate, at 2 × 10^5 cells per well with 25 μg of SseB peptide or recombinant protein in pre-coated murine IFN-γ ELISpot plates (2BScientific, Upper Heyford, Oxfordshire, UK). Culture medium was RPMI-1640 containing 2 mM L-glutamine, 50 U/ml penicillin G, 50 μg/ml streptomycin sulphate, 50 μM β-mercaptoethanol and 10% fetal calf serum. Cells were cultured at 37° and in 5% CO2 for 72 hr before assay development using a biotinylated anti-IFN-γ antibody, a horseradish peroxidase detection antibody and TMB substrate (2BScientific). Developed plates were left to dry before spot counting using an AID ELISpot reader (Autoimmun Diagnostika GMBH). Positive epitopes for a given transgenic line were defined as those where more than half of assayed animals gave a greater number of spot-forming cells than 2 SD over the mean of the no protein/peptide control.
(§4) Fig 1 Definition of HLA-DR specific T-cell epitopes in DR1 and DR4 transgenic mice. (a) HLA-DR1 (n = 5) and (b) HLA-DR4 (n = 6) mice were footpad primed with ssEB protein in combination with TiterMax® Gold adjuvant. Draining lymph node (DLN) cells were assayed by ELISpot at day 10 for interferon-γ (IFN-γ) T-cell responses to ssEB peptides and protein. A peptide was defined as containing a T-cell epitope for DR1 or DR4 HLA molecules if more than half of the mice assayed gave a greater number of spot-forming cells than 2 SD over the mean of the no peptide/protein control. The 2 SD value for each transgenic line is shown by a dotted line.

Another test concerns the target HLA-DRB1*11:01 (Homo sapiens, UniProt P01903+P01911, A100R/A169T/A87E/I96F/K41T/L162R/M171V/P40S/Q125H/Q178H/Q39Y/Q99D/R42S/S66Y/T262R/V115G/W38E). As to conditions: competitive ELISA; ratio IC50 of peptide / IC50 of reference peptide HA 306–318; lower = higher affinity; ratio 20 or less high, 20–100 moderate; three independent experiments.
A further test relates to Salmonella SL1344. As to conditions: C57BL/6 mice, immunization with two doses; cited from earlier work. The source says:
There have been a limited number of studies aimed at exploring candidates from the S. Typhi immunome for serodiagnostic, serodominant or protective credentials with respect to B-cell or T-cell immunity.[16]–[19] Some candidate antigens have been successfully deployed to induce protective immunity against challenge in mice; these antigens include OmpL, SseB, SseD and CirA.[16],[18],[19] Antigen arrays have been informative: an array of 2724 Salmonella enterica serovar Typhi antigens, selected on the basis of key terms such as ‘outer membrane’ or ‘chaperone’, representing over 63% of the proteom ...

Test [2] has as its system draining lymph node cells of HLA-DR1 transgenic mice. As to the kind of experiment: Murine IFN-γ ELISpot, HLA-DR1 transgenic mice primed with SseB. As to conditions: mouse, in vivo.
Excerpt: as §2, §3, §4

As for “14: SseB overlapping library peptide, residues 131–150 (KLDKGGLQAIKAALDNDANR) [Peptide 14]”, the “Relative binding affinity of peptide to HLA-DR molecules DRB1*0701” value in the test with HLA-DRB1*07:01 is on record as 17. For the same molecule, in the test with HLA-DRB1*01:01, the “Relative binding affinity of peptide to HLA-DR molecules DRB1*0101” value turned out to be 335. The “Relative binding affinity of peptide to HLA-DR molecules DRB1*0401” value in the test with HLA-DRB1*04:01 was 13. Besides, the “Relative binding affinity of peptide to HLA-DR molecules DRB1*1502” value with HLA-DRB1*15:02 is > 3 333. Further, in the test with HLA-DRB1*12:02, the “Relative binding affinity of peptide to HLA-DR molecules DRB1*1202” value is reported as 71. The “Relative binding affinity of peptide to HLA-DR molecules DRB1*1501” value with HLA-DRB1*15:01 turned out to be 10. Moreover, the “Relative binding affinity of peptide to HLA-DR molecules DRB1*0301” value with HLA-DRB1*03:01 is listed as over 119. For the same molecule, the “Relative binding affinity of peptide to HLA-DR molecules DRB1*0901” value with HLA-DRB1*09:01 came to 50. Moreover, the “IFN-γ ELISpot recall response / CD4 epitope in HLA-DR4 transgenic mice” value in test [1] is recorded as “CD4 epitopes detected”. For the same molecule, in the test with HLA-DRB1*11:01, the “Relative binding affinity of peptide to HLA-DR molecules DRB1*1101” value is over 278.

B1: SseB: Recombinant SseB protein of Salmonella, codon optimized, expressed in E. coli (protein, UniProt Q7BVH7 1-196, looked up)
Secreted effector protein SseB: MSSGNILWGSQNPIVFKNSFGVSNADTGSQDDLSQQNPFAEGYGVLLILLMVIQAIANNKFIEVQKNAERARNTQEKSNEMDEVIAKAAKGDAKTKEEVPEDVIKYMRDNGILIDGMTIDDYMAKYGDHGKLDKGGLQAIKAALDNDANRNTDLMSQGQITIQKMSQELNAVLTQLTGLISKWGEISSMIAQKTYS
modifications: recombinant, codon optimized, E. coli expressed
Take B1: the “protection from oral challenge (mean survival time and tissue bacterial burden)” value with Salmonella SL1344 was “substantial protection”. In addition, the “IFN-γ ELISpot recall response / CD4 epitope in HLA-DR4 transgenic mice” value in test [1] was “relatively large response”. In [2], the “IFN-γ ELISpot recall response / CD4 epitope in HLA-DR1 transgenic mice” value was “highly immunogenic”.
